Results: IntAct's records for PubMed 24019758

B1: Transcription factor p65 (Mus musculus), Q04207 (parent)
chain: MDDLFPLIFPSEPAQASGPYVEIIEQPKQRGMRFRYKCEGRSAGSIPGERSTDTTKTHPTIKINGYTGPGTVRISLVTKDPPHRPHPHELVGKDCRDGYYEADLCPDRSIHSFQNLGIQCVKKRDLEQAISQRIQTNNNPFHVPIEEQRGDYDLNAVRLCFQVTVRDPAGRPLLLTPVLSHPIFDNRAPNTAELKICRVNRNSGSCLGGDEIFLLCDKVQKEDIEVYFTGPGWEARGSFSQADVHRQVAIVFRTPPYADPSLQAPVRVSMQLRRPSDRELSEPMEFQYLPDTDDRHRIEEKRKRTYETFKSIMKKSPFNGPTEPRPPTRRIAVPTRNSTSVPKPAPQPYTFPASLSTINFDEFSPMLLPSGQISNQALALAPSSAPVLAQTMVPSSAMVPLAQPPAPAPVLTPGPPQSLSAPVPKSTQAGEGTLSEALLHLQFDADEDLGALLGNSTDPGVFTDLASVDNSEFQQLLNQGVSMSHSTAEPMLMEYPEAITRLVTGSQRPPDPAPTPLGTSGLPNGLSGDEDFSSIADMDFSALLSQISS

Assays:
cbp_mouse Crebbp, P45481 [1] = variants of: B1; details: with cbp_mouse Crebbp
cbp_mouse Crebbp, P45481 [2] = variants of: B1; details: with cbp_mouse Crebbp; remark: listed apart in the source
cbp_mouse Crebbp, P45481 [3] = variants of: B1; details: with cbp_mouse Crebbp; remark: listed apart in the source
[4] = variants of: B1; details: with ep300_mouse Ep300, B2RWS6
cbp_mouse Crebbp, P45481 [5] = variants of: B1; details: with cbp_mouse Crebbp; remark: listed apart in the source

Chain of cbp_mouse Crebbp, P45481 (P45481 whole entry): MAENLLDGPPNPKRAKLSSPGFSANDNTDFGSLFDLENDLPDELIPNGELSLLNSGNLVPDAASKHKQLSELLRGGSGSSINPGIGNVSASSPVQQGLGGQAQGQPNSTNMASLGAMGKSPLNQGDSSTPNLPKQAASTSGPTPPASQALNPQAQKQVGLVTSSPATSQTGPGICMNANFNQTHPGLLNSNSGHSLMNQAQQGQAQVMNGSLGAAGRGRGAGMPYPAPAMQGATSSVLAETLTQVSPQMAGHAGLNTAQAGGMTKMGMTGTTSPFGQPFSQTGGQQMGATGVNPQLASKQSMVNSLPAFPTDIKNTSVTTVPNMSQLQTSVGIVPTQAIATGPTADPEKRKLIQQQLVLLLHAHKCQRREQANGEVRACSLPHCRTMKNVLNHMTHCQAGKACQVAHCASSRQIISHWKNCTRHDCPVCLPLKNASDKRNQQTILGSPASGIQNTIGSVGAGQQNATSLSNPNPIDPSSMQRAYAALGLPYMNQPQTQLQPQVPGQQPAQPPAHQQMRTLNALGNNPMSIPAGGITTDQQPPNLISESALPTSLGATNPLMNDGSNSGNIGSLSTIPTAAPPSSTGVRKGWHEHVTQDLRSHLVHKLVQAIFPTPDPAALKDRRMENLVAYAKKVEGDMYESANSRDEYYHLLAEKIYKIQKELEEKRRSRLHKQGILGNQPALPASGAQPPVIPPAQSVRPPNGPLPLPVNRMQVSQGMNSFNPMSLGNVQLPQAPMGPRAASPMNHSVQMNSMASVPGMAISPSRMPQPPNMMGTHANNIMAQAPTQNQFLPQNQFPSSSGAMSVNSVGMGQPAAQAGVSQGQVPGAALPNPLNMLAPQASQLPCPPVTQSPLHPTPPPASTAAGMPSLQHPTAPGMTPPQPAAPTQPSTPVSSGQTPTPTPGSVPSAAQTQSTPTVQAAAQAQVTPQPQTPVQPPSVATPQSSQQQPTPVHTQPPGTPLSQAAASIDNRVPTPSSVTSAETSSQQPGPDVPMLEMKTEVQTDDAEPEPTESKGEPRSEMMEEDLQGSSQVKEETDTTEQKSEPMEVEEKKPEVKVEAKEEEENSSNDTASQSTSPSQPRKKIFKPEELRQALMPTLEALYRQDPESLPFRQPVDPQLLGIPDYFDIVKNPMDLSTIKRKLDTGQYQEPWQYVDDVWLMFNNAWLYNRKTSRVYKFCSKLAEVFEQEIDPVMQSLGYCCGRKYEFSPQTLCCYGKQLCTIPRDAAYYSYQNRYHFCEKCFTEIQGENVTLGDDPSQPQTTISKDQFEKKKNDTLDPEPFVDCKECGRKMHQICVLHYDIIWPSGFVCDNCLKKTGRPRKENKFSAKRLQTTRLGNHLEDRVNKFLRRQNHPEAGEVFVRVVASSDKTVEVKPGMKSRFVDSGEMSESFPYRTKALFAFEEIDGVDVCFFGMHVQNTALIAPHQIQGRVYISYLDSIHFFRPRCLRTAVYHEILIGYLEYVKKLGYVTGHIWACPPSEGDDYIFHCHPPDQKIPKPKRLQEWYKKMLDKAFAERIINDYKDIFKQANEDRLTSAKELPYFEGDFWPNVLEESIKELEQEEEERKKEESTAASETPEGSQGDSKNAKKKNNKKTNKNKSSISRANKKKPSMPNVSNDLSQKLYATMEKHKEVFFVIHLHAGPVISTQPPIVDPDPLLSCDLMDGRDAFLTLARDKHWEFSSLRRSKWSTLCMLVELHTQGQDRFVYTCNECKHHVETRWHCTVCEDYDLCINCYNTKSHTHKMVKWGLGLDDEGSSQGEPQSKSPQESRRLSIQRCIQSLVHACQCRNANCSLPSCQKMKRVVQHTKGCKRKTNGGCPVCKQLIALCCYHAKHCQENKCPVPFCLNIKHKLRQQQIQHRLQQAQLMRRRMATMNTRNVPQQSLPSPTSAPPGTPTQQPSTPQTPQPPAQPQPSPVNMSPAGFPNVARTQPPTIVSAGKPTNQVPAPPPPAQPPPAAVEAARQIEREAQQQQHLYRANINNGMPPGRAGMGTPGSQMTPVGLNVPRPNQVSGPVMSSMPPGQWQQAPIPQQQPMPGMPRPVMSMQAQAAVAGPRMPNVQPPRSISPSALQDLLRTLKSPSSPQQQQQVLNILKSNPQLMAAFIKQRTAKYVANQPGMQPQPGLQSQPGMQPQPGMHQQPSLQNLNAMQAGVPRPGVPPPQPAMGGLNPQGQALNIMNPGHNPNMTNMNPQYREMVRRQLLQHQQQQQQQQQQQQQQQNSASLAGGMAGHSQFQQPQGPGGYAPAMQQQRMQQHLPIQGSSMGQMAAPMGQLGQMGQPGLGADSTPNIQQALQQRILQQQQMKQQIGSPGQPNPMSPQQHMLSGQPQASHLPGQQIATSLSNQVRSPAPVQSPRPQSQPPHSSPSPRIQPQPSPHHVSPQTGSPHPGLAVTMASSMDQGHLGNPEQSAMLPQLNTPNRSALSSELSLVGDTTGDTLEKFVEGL
Chain of ep300_mouse Ep300, B2RWS6 (B2RWS6 whole entry): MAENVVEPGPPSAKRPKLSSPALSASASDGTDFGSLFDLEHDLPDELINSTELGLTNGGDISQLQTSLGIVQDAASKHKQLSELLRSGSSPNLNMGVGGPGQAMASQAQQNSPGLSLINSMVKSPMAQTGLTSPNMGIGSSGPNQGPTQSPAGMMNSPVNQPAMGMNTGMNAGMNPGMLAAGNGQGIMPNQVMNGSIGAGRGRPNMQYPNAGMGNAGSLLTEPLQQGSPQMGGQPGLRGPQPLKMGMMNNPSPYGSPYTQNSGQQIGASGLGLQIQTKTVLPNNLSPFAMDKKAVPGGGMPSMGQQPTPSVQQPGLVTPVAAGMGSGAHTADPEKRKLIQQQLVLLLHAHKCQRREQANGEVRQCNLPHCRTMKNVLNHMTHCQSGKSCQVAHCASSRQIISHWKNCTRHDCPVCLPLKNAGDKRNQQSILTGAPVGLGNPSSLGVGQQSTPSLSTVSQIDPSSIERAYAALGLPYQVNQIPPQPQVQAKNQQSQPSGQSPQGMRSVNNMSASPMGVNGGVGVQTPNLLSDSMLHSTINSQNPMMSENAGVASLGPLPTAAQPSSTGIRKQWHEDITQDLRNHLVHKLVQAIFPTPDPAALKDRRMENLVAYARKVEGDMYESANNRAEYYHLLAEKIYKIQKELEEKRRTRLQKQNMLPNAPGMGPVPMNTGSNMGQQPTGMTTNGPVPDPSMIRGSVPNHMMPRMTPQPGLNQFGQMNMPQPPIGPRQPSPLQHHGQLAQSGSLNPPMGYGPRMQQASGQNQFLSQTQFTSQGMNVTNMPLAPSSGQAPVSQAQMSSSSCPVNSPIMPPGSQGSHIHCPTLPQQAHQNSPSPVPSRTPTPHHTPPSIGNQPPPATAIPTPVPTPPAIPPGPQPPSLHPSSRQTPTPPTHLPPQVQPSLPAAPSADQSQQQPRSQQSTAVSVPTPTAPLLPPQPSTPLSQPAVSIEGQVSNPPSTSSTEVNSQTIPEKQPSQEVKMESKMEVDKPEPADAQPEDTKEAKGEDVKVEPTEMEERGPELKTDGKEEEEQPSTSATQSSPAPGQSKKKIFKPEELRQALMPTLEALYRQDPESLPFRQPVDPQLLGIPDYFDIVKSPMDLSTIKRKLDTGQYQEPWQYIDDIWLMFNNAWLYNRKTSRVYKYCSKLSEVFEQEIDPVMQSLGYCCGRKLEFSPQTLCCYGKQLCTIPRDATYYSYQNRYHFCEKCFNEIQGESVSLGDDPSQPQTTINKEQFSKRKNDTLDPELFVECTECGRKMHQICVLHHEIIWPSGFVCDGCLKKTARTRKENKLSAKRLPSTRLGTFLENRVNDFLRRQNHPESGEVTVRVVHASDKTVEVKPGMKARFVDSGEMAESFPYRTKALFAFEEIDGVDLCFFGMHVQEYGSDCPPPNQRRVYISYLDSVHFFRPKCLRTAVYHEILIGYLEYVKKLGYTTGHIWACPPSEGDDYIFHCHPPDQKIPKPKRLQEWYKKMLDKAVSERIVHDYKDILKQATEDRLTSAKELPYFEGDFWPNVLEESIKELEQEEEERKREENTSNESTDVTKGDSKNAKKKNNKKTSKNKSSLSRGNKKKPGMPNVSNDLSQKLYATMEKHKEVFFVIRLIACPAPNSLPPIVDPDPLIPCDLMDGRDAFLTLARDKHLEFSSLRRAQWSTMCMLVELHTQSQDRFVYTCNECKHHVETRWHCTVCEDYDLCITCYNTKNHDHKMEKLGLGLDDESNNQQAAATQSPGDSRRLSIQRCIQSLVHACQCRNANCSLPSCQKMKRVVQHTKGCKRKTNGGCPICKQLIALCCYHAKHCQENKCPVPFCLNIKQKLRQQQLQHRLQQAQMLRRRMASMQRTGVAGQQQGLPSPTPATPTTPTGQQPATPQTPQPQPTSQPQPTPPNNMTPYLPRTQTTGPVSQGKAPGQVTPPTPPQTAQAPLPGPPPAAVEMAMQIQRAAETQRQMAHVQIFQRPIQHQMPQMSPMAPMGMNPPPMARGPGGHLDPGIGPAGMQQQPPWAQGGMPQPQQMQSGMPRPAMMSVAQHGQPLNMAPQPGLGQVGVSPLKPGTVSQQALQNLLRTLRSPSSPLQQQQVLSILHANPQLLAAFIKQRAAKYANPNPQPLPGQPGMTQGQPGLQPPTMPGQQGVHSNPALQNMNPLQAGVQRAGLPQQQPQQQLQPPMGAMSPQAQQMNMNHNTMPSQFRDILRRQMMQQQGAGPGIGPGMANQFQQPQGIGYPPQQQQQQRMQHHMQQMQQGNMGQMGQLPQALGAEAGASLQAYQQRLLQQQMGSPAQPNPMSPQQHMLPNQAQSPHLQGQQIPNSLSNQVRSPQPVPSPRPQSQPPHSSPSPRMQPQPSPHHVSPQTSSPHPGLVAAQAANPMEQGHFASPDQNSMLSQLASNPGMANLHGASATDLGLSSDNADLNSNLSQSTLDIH

Variant	effect of a mutation on the interaction (cbp_mouse Crebbp, P45481 [1])	effect of a mutation on the interaction (cbp_mouse Crebbp, P45481 [2])	effect of a mutation on the interaction (cbp_mouse Crebbp, P45481 [3])	effect of a mutation on the interaction [4]	effect of a mutation on the interaction (cbp_mouse Crebbp, P45481 [5])
L449A;F473A	disrupting interaction strength	disrupting interaction strength	decreasing interaction strength	decreasing interaction strength	
L449A;S467A;F473A	disrupting interaction strength		decreasing interaction strength		
L449A		disrupting interaction strength			decreasing interaction strength
S276A			decreasing interaction strength	decreasing interaction strength	
F473A		disrupting interaction strength			
S467A			decreasing interaction strength	decreasing interaction strength	
L465A		disrupting interaction strength			decreasing interaction strength
